The text below walks through data of paper PMC7949032, “The KH domain facilitates the substrate specificity and unwinding processivity of DDX43 helicase”.

The target in series [1] is T1, DDX43 KH-126 (UniProt Q9NXZ2).
T1 sequence: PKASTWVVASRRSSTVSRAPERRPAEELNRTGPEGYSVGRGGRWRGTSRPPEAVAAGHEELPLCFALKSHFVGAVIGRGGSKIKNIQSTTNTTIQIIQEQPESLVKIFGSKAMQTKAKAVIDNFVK
Description: filter binding. As to conditions: EMSA: 40 mM Tris pH 8.0, 0.5 mM MgCl2, 15 mM NaCl, 0.01% NP-40, 0.1 mM DTT, 1 mg/ml BSA, no ATP, ice 30 min (Fig 2A legend: RT); filter binding: 25 mM Tris pH ….

The target of series [2] is DDX43 KH-domain protein KH-126 (human) (UniProt Q9NXZ2). Description: SEC; Sephacryl S-100 high-resolution column calibrated with molecular mass standards; buffer A (25 mM Tris pH 8.0, 0.15 M NaCl, 100 uM Tween 20, 10% glycerol), 0.5 ml/min. Background: In gel filtration, larger molecules generally elute earlier.
Series [3] deals with T2, DDX43 KH-89 (UniProt Q9NXZ2 54-142).
T2 sequence: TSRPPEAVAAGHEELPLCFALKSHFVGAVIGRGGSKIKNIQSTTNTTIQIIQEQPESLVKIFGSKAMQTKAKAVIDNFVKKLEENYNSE
Description: NMR HSQC titration; EMSA: 40 mM Tris pH 8.0, 0.5 mM MgCl2, 15 mM NaCl, 0.01% NP-40, 0.1 mM DTT, 1 mg/ml BSA, no ATP, ice 30 min (Fig 2A legend: RT); filter binding: 25 mM Tris pH 7.5, 25 mM KOAc, 1 mM Mg(OAc)2, 1 mM DTT, 0.1 mg/ml BSA, 37 C; NMR: 25 mM Hepes pH 7.4, 250 mM NaCl, 5% D2O, temperature not stated. The note with it: protein: recombinant; His removed by thrombin for NMR; 15N.

For series [4], the target named is T2, DDX43 KH-89. Description: NMR HSQC titration; negligible shift changes; EMSA: 40 mM Tris pH 8.0, 0.5 mM MgCl2, 15 mM NaCl, 0.01% NP-40, 0.1 mM DTT, 1 mg/ml BSA, no ATP, ice 30 min (Fig 2A legend: RT); filter binding: 25 mM Tris pH 7.5, 25 mM KOAc, 1 mM Mg(OAc)2, 1 mM DTT, 0.1 mg/ml BSA, 37 C; NMR: 25 mM Hepes pH 7.4, 250 mM NaCl, 5% D2O, temperature not stated. As to conditions: protein: recombinant; His removed by thrombin for NMR; 15N. Background: In EMSA bound probe runs differently from free probe, usually more slowly.

Series [5] has as its target T3, DDX43 full-length WT (UniProt Q9NXZ2 1-648). Description: EMSA; no ATP; preferred RNA; EMSA: 40 mM Tris pH 8.0, 0.5 mM MgCl2, 15 mM NaCl, 0.01% NP-40, 0.1 mM DTT, 1 mg/ml BSA, no ATP, ice 30 min (Fig 2A legend: RT); filter binding: 25 mM Tris pH 7.5, 25 mM KOAc, 1 mM Mg(OAc)2, 1 mM DTT, 0.1 mg/ml BSA, 37 C; NMR: 25 mM Hepes pH 7.4, 250 mM NaCl, 5% D2O, temperature not stated. The note with it: protein: recombinant; (pET28a); label: 5'-32P; 13 bp, 5' overhang 15 nt on strand 1.

Series [6] has as its target T4, DDX43 KH-89 A81G (UniProt Q9NXZ2 54-142, A81G).
T4 sequence: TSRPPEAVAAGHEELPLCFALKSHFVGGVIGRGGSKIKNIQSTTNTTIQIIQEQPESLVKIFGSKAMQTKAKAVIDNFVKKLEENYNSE
Description: NMR HSQC titration; fewer residues shifted, larger shifts than WT; EMSA: 40 mM Tris pH 8.0, 0.5 mM MgCl2, 15 mM NaCl, 0.01% NP-40, 0.1 mM DTT, 1 mg/ml BSA, no ATP, ice 30 min (Fig 2A legend: RT); filter binding: 25 mM Tris pH 7.5, 25 mM KOAc, 1 mM Mg(OAc)2, 1 mM DTT, 0.1 mg/ml BSA, 37 C; NMR: 25 mM Hepes pH 7.4, 250 mM NaCl, 5% D2O, temperature not stated. The note with it: protein: recombinant; tags: His cleaved by thrombin.

Series [7] addresses T2, DDX43 KH-89. Description: EMSA; EMSA: 40 mM Tris pH 8.0, 0.5 mM MgCl2, 15 mM NaCl, 0.01% NP-40, 0.1 mM DTT, 1 mg/ml BSA, no ATP, ice 30 min (Fig 2A legend: RT); filter binding: 25 mM Tris pH 7.5, 25 mM KOAc, 1 mM Mg(OAc)2, 1 mM DTT, 0.1 mg/ml BSA, 37 C; NMR: 25 mM Hepes pH 7.4, 250 mM NaCl, 5% D2O, temperature not stated. As to conditions: protein: recombinant; His removed by thrombin for NMR; 15N; label: 5'-32P.

For series [8], the target named is T3, DDX43 full-length WT. Description: EMSA; no ATP; preferred DNA; EMSA: 40 mM Tris pH 8.0, 0.5 mM MgCl2, 15 mM NaCl, 0.01% NP-40, 0.1 mM DTT, 1 mg/ml BSA, no ATP, ice 30 min (Fig 2A legend: RT); filter binding: 25 mM Tris pH 7.5, 25 mM KOAc, 1 mM Mg(OAc)2, 1 mM DTT, 0.1 mg/ml BSA, 37 C; NMR: 25 mM Hepes pH 7.4, 250 mM NaCl, 5% D2O, temperature not stated. The note with it: protein: recombinant; (pET28a); label: 5'-32P; 20 bp, 3' overhang 25 nt on strand 1.

T3 sequence (Q9NXZ2 whole entry): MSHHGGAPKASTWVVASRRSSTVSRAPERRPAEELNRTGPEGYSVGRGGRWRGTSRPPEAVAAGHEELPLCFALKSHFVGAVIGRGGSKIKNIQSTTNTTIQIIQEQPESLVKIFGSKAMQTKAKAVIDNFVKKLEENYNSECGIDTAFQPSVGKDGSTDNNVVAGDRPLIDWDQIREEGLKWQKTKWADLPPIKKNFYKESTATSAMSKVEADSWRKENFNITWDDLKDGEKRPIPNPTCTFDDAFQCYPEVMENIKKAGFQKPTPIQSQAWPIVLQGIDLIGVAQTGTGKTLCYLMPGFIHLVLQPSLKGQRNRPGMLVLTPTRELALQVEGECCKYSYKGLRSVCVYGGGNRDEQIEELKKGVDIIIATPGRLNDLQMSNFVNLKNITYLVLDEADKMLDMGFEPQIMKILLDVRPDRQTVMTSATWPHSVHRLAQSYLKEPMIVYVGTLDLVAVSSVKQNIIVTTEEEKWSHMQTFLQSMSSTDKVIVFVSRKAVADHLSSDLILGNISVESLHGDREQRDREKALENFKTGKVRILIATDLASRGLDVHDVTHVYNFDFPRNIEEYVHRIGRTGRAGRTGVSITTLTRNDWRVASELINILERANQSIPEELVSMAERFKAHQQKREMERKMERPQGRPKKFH

Molecule “TTTTTTTTTTTTTTTGGTGATGGTGTATTGAGTGGGATGCATGCA / TGCATGCATCCCACTCAATACACCATCACCTTTTTTTTTTTTTTT [fork dsDNA 30/15]” displayed a Kd in series [1] of 1.29 µM.

Consider “GAGCTACCAGCTACCCCGTATGTCAGAGAG [ssDNA 30-mer]”, for which the Kd in series [1] stood at 1.41 µM.

In turn, “DDX43 KH-domain protein KH-126 (from UniProt Q9NXZ2 67-128) (domain or fragment)” displayed a stoichiometry N in series [2] of 2.

“GAGCUACCAGCUACCCCGUAUGUCAGAGAG [ssRNA 30-mer]” came in with a dissociation constant (Kd) in series [1] of 3.01 µM.

Turning to “UUUUUUUUUUUUUUUGGUGAUGGUGUAUUGAGUGGGAUGCAUGCA / UGCAUGCAUCCCACUCAAUACACCAUCACCUUUUUUUUUUUUUUU [forked dsRNA 30/15]”, the Kd in series [1] was found to be 2.5 µM.

As to UUUUUUUUUUUUUUUUUUUUUUUUUUUUUU [rU30], the Kd in series [1] is 1.48 µM.

TTTTTTTTTTTTTTTTTTTTTTTTTTTTTT [dT30] returned a Kd in series [1] of 2.45 µM.

B1: CTCTC (ssDNA)
DNA: CTCTC
Take B1: in series [3], the binding result is reported as “binds”.

B2: dC5 (ssDNA)
DNA: CCCCC
As for B2, the Kd in series [3] is 2100 ± 400 µM.

B3: CGCGC (ssDNA)
DNA: CGCGC
For the molecule B3, the Kd in series [3] was determined as 266 µM.

B4: dA5 (ssDNA)
DNA: AAAAA
Turning to B4, the binding result in series [4] is reported as “no binding”.

B5: dT10 (ssDNA)
DNA: TTTTTTTTTT
With B5, the Kd in series [3] stood at 174 ± 90 µM.

B6: 13-bp dsRNA 5' UUGU-repeat tail (dsRNA)
RNA 1: UGUUGUUGUUGUUGUACCGUAAAGACGC
RNA 2: GCGUCUUUACGGU
For the molecule B6, the binding result in series [5] is “binds”.

B7: TGTGT (ssDNA)
DNA: TGTGT
Regarding B7, in series [3], the Kd turned out to be 78 µM.

B8: dT5 (ssDNA)
DNA: TTTTT
B8: the binding result in series [6] is given as “binds”. Also, in series [3], the Kd turned out to be 1500 ± 290 µM.

B9: dG5 (ssDNA)
DNA: GGGGG
On to B9, for which, in series [4], the binding result is listed as “no binding”.

B10: rU5 (ssRNA)
RNA: UUUUU
As for B10, the Kd in series [3] amounted to 1800 ± 200 µM.

B11: ssDNA 30-mer (ssDNA)
DNA: GAGCTACCAGCTACCCCGTATGTCAGAGAG
Take B11: the binding result in series [7] is reported as “binds”.

B12: ssRNA 30-mer (ssRNA)
RNA: GAGCUACCAGCUACCCCGUAUGUCAGAGAG
In the case of B12, the binding result in series [7] was “binds”.

B13: 20-bp dsDNA 3' TTGT-repeat tail (dsDNA)
DNA 1: CCACTCAATACACCATCACCTTGTTGTTGTTGTTGTTGTTGTTGT
DNA 2: GGTGATGGTGTATTGAGTGG
For B13, the binding result in series [8] is “binds”.

B14: GTTGT (ssDNA)
DNA: GTTGT
B14: the Kd in series [3] came out at 44 µM.

The Kd is the free concentration of one partner at which half of the binding sites on the other are occupied at equilibrium, for simple one-to-one binding. Broadly, the stoichiometry N is the number of molecules, sites or subunits per partner or assembly.
